Measurements published in the supplement of paper PMC10065799, “High-throughput profiling of sequence recognition by tyrosine kinases and SH2 domains using bacterial peptide display” (eLife, 2023).

What follows are sequences tested against FGFR3 (UniProt P22607) (assay: phosphorylation enrichment, bacterial display (enrichment ratio); higher = better substrate or ligand; peptides without Tyr show the background).
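Note: 11-residue human phosphosite peptides and single-mutation variants displayed on the E. coli surface, counted by deep sequencing, each peptide's frequency after selection divided by its frequency in the unselected input library; frequency after pTyr selection over input frequency; kinase dosed for 20-30% of maximal phosphorylation in three min.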

FGFR3, sequence (P22607 whole entry, looked up): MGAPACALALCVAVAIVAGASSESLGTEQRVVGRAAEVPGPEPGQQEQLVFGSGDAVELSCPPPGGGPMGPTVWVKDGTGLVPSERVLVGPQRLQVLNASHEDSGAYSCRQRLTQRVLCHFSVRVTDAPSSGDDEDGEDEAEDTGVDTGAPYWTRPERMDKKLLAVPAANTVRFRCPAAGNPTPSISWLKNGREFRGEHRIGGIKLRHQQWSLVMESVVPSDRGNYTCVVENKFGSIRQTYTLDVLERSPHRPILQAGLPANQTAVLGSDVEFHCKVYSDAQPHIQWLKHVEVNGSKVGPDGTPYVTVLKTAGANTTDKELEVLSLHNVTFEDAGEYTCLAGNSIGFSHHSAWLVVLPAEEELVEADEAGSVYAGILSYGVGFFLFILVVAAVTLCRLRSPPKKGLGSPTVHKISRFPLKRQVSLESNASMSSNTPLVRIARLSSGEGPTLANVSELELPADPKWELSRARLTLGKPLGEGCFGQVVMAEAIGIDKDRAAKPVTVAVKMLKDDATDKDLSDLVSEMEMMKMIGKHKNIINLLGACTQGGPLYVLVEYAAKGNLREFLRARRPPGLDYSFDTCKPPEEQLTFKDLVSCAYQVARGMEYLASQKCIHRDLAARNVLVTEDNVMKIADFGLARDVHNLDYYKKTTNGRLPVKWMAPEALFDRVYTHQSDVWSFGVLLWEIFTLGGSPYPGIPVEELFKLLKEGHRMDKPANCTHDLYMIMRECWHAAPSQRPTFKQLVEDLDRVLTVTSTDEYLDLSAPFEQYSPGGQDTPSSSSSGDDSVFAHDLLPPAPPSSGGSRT

Row | Sequence | phosphorylation enrichment
1 | MLNTNYHLPPS [MT-ATP8_Y33] | 2.43
2 | FTFNSYFMHWV [IGHV1-46_Y51_T49N_YF] | 1.37
3 | AKAFIYASHIV [ZNF573_Y229_G224A] | 0.965
4 | ETKKQYDSFTF [TMED3_Y85_YF] | 0.643
5 | QRVLLYVRRET [GRHL3_Y518] | 0.781
6 | SLTRLYVGENA [NLRP3_Y861] | 0.517
7 | PFQGAYLKINK [MYO1B_Y967_E969K] | 0.909
8 | LGLDECLDKLK [FMNL2_Y352_Y352C] | 1.54
9 | SEELHYFVQNH [UQCRC2_Y207] | 1.39
10 | TPTFPYLLPKS [PLD2_Y580_YF] | 0.406
11 | GGYNNYGYGND [HNRNPH3_Y159] | 0.688
12 | QDTSRYTVSNL [BIRC3_Y245] | 0.71
13 | RRERLYGGGGG [FUS_Y526_P525L] | 0.545
14 | TVSSDYLHPQF [CCPG1_Y569_F566S_YF] | 0.753
15 | PFTRNYFVQAV [CYBA_Y87_R90Q_YF] | 0.905
16 | PNLILYGDFRQ [MYH7_Y715_R712L] | 0.762
17 | SVTCMYSPALN [TP53_Y126_T125M] | 0.749
18 | RNDQVYQPLRD [CD3D_Y149] | 0.927
19 | KAALSYVSEIG [BPIFB2_Y36] | 0.558
20 | EAVKNYTEKRG [PBRM1_Y672_D674E] | 0.449
21 | EAMPDYKKQLR [SPATA18_Y229_S227P] | 0.444
22 | SHGKRYRVPSD [HHIPL2_Y395] | 0.366
23 | RRYVYYYSYLL [PTEN_Y177] | 1.11
24 | FKEQGYHRLPS [RIN1_Y681_P686S_YF] | 0.583
25 | EVASVYESFQP [MAVS_Y92_Q93E_YF] | 0.852
26 | DFFDLYGGEKK [PTPN11_Y66_F71K_YF] | 0.772
27 | ALIKAYDKAVA [SMN1_Y43] | 0.526
28 | MAFDRYVAICA [OR52J3_Y125_V128I] | 0.708
29 | KLMTEYKKRKQ [ARFGEF3_Y2029] | 0.543

What follows are sequences tested on Fer (mouse) in the same assay as above.

Row | Sequence | phosphorylation enrichment
30 | MLNTNYHLPPS [MT-ATP8_Y33] | 0.327
31 | FTFNSYFMHWV [IGHV1-46_Y51_T49N_YF] | 1.62
32 | AKAFIYASHIV [ZNF573_Y229_G224A] | 1.57
33 | ETKKQYDSFTF [TMED3_Y85_YF] | 0.407
34 | QRVLLYVRRET [GRHL3_Y518] | 0.468
35 | SLTRLYVGENA [NLRP3_Y861] | 0.444
36 | PFQGAYLKINK [MYO1B_Y967_E969K] | 0.853
37 | LGLDECLDKLK [FMNL2_Y352_Y352C] | 1.31
38 | SEELHYFVQNH [UQCRC2_Y207] | 0.562
39 | TPTFPYLLPKS [PLD2_Y580_YF] | 0.382
40 | GGYNNYGYGND [HNRNPH3_Y159] | 0.672
41 | QDTSRYTVSNL [BIRC3_Y245] | 0.501
42 | RRERLYGGGGG [FUS_Y526_P525L] | 0.499
43 | TVSSDYLHPQF [CCPG1_Y569_F566S_YF] | 0.495
44 | PFTRNYFVQAV [CYBA_Y87_R90Q_YF] | 1.25
45 | PNLILYGDFRQ [MYH7_Y715_R712L] | 0.72
46 | SVTCMYSPALN [TP53_Y126_T125M] | 0.667
47 | RNDQVYQPLRD [CD3D_Y149] | 0.575
48 | KAALSYVSEIG [BPIFB2_Y36] | 0.387
49 | EAVKNYTEKRG [PBRM1_Y672_D674E] | 0.564
50 | EAMPDYKKQLR [SPATA18_Y229_S227P] | 0.474
51 | SHGKRYRVPSD [HHIPL2_Y395] | 0.285
52 | RRYVYYYSYLL [PTEN_Y177] | 0.518
53 | FKEQGYHRLPS [RIN1_Y681_P686S_YF] | 0.822
54 | EVASVYESFQP [MAVS_Y92_Q93E_YF] | 14
55 | DFFDLYGGEKK [PTPN11_Y66_F71K_YF] | 0.566
56 | ALIKAYDKAVA [SMN1_Y43] | 0.282
57 | MAFDRYVAICA [OR52J3_Y125_V128I] | 0.562
58 | KLMTEYKKRKQ [ARFGEF3_Y2029] | 0.411

What follows are sequences tested against Fes (UniProt P07332) in the same assay as above.
Fes, sequence (P07332 whole entry, looked up): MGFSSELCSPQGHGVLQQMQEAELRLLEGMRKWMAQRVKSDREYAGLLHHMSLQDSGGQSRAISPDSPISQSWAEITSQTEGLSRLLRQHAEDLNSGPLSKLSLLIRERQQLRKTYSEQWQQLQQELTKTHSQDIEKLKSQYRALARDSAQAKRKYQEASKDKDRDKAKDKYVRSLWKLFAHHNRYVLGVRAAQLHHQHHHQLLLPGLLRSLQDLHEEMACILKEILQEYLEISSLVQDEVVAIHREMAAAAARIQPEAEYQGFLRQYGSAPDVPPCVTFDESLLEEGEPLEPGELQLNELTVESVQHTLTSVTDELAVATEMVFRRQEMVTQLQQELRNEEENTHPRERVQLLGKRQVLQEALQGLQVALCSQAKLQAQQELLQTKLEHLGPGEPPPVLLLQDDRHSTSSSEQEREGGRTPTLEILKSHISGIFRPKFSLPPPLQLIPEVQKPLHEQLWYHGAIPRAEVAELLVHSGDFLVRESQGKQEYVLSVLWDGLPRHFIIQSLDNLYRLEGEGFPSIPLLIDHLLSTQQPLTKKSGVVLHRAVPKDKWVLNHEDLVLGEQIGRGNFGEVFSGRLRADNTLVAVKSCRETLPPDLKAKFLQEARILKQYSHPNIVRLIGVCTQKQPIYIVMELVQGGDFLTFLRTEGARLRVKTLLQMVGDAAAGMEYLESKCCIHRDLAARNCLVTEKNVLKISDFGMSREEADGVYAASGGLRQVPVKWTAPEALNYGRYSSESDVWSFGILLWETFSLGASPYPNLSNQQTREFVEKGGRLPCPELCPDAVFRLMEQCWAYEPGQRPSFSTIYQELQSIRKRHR

Row | Sequence | phosphorylation enrichment
59 | MLNTNYHLPPS [MT-ATP8_Y33] | 0.526
60 | FTFNSYFMHWV [IGHV1-46_Y51_T49N_YF] | 1.59
61 | AKAFIYASHIV [ZNF573_Y229_G224A] | 1.08
62 | ETKKQYDSFTF [TMED3_Y85_YF] | 0.9
63 | QRVLLYVRRET [GRHL3_Y518] | 0.796
64 | SLTRLYVGENA [NLRP3_Y861] | 0.703
65 | PFQGAYLKINK [MYO1B_Y967_E969K] | 1.52
66 | LGLDECLDKLK [FMNL2_Y352_Y352C] | 1.85
67 | SEELHYFVQNH [UQCRC2_Y207] | 1.16
68 | TPTFPYLLPKS [PLD2_Y580_YF] | 0.63
69 | GGYNNYGYGND [HNRNPH3_Y159] | 0.849
70 | QDTSRYTVSNL [BIRC3_Y245] | 0.824
71 | RRERLYGGGGG [FUS_Y526_P525L] | 1.14
72 | TVSSDYLHPQF [CCPG1_Y569_F566S_YF] | 0.927
73 | PFTRNYFVQAV [CYBA_Y87_R90Q_YF] | 1.2
74 | PNLILYGDFRQ [MYH7_Y715_R712L] | 1.28
75 | SVTCMYSPALN [TP53_Y126_T125M] | 1.47
76 | RNDQVYQPLRD [CD3D_Y149] | 0.7
77 | KAALSYVSEIG [BPIFB2_Y36] | 0.636
78 | EAVKNYTEKRG [PBRM1_Y672_D674E] | 0.514
79 | EAMPDYKKQLR [SPATA18_Y229_S227P] | 0.819
80 | SHGKRYRVPSD [HHIPL2_Y395] | 0.413
81 | RRYVYYYSYLL [PTEN_Y177] | 0.768
82 | FKEQGYHRLPS [RIN1_Y681_P686S_YF] | 1.49
83 | EVASVYESFQP [MAVS_Y92_Q93E_YF] | 1.31
84 | DFFDLYGGEKK [PTPN11_Y66_F71K_YF] | 1.38
85 | ALIKAYDKAVA [SMN1_Y43] | 0.578
86 | MAFDRYVAICA [OR52J3_Y125_V128I] | 0.808
87 | KLMTEYKKRKQ [ARFGEF3_Y2029] | 0.69

The sequences below were run against Fyn (UniProt P06241) in the same assay as above.
Fyn, sequence (P06241 whole entry, looked up): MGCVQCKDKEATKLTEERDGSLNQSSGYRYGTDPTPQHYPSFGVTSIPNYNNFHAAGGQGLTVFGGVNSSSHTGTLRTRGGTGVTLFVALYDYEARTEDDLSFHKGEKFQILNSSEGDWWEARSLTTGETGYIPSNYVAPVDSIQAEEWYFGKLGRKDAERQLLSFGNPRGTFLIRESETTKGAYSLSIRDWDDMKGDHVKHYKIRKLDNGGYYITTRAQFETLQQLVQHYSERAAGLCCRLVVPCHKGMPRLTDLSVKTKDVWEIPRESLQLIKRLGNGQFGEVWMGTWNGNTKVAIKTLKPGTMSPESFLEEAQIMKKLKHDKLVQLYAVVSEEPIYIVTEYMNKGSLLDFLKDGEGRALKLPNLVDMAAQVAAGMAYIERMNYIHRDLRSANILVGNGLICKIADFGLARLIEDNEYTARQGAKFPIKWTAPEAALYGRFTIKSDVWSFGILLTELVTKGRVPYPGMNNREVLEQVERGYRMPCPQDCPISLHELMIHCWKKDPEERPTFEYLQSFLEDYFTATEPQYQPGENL

Row | Sequence | phosphorylation enrichment
88 | MLNTNYHLPPS [MT-ATP8_Y33] | 0.384
89 | FTFNSYFMHWV [IGHV1-46_Y51_T49N_YF] | 0.608
90 | AKAFIYASHIV [ZNF573_Y229_G224A] | 1
91 | ETKKQYDSFTF [TMED3_Y85_YF] | 0.517
92 | QRVLLYVRRET [GRHL3_Y518] | 0.699
93 | SLTRLYVGENA [NLRP3_Y861] | 0.424
94 | PFQGAYLKINK [MYO1B_Y967_E969K] | 0.582
95 | LGLDECLDKLK [FMNL2_Y352_Y352C] | 1.04
96 | SEELHYFVQNH [UQCRC2_Y207] | 0.523
97 | TPTFPYLLPKS [PLD2_Y580_YF] | 0.501
98 | GGYNNYGYGND [HNRNPH3_Y159] | 0.805
99 | QDTSRYTVSNL [BIRC3_Y245] | 0.523
100 | RRERLYGGGGG [FUS_Y526_P525L] | 0.535
101 | TVSSDYLHPQF [CCPG1_Y569_F566S_YF] | 0.404
102 | PFTRNYFVQAV [CYBA_Y87_R90Q_YF] | 0.943
103 | PNLILYGDFRQ [MYH7_Y715_R712L] | 5.16
104 | SVTCMYSPALN [TP53_Y126_T125M] | 0.501
105 | RNDQVYQPLRD [CD3D_Y149] | 5.01
106 | KAALSYVSEIG [BPIFB2_Y36] | 0.364
107 | EAVKNYTEKRG [PBRM1_Y672_D674E] | 0.328
108 | EAMPDYKKQLR [SPATA18_Y229_S227P] | 0.309
109 | SHGKRYRVPSD [HHIPL2_Y395] | 0.395
110 | RRYVYYYSYLL [PTEN_Y177] | 0.771
111 | FKEQGYHRLPS [RIN1_Y681_P686S_YF] | 0.305
112 | EVASVYESFQP [MAVS_Y92_Q93E_YF] | 11.2
113 | DFFDLYGGEKK [PTPN11_Y66_F71K_YF] | 1.32
114 | ALIKAYDKAVA [SMN1_Y43] | 0.458
115 | MAFDRYVAICA [OR52J3_Y125_V128I] | 0.454
116 | KLMTEYKKRKQ [ARFGEF3_Y2029] | 0.418
